{
  "source": "patent US20220048967A1",
  "about": "(published 2022)",
  "binders": {"B1": {"name": "Example 364 (peptide)", "peptide": "XXEGTFTSDYSIXLDXKAQXAFVXYLIAGGPSSGAPPPS", "modifications": "D-Tyr1; Aib2; αMeL13; Orn16; K17 conjugated to (2-[2-(2-Amino-ethoxy)-ethoxy]-acetyl)2-(γ-Glu)-CO-(CH2)16-CO2H; Aib20; D-Glu24; C-terminal amide"}, "B2": {"name": "Example 376 (peptide)", "peptide": "B1 peptide with X16K, V23I, X24E, Y25X", "modifications": "D-Tyr1; Aib2; αMeL13; K17 conjugated to (2-[2-(2-Amino-ethoxy)-ethoxy]-acetyl)2-(γ-Glu)-CO-(CH2)16-CO2H; Aib20; αMeY25; C-terminal amide"}, "B3": {"name": "Example 361 (peptide)", "peptide": "B1 peptide with X16K", "modifications": "D-Tyr1; Aib2; αMeL13; K17 conjugated to (2-[2-(2-Amino-ethoxy)-ethoxy]-acetyl)2-(γ-Glu)-CO-(CH2)18-CO2H; Aib20; D-Glu24; C-terminal amide"}, "B4": {"name": "Example 366 (peptide)", "peptide": "B1 peptide with V23I, X24E, Y25X", "modifications": "D-Tyr1; Aib2; αMeL13; Orn16; K17 conjugated to (2-[2-(2-Amino-ethoxy)-ethoxy]-acetyl)2-(γ-Glu)-CO-(CH2)18-CO2H; Aib20; αMeY25; C-terminal amide"}, "B5": {"name": "Example 379 (peptide)", "peptide": "XXEGTFTSDYSIXLDKKAQXEFIEXLIEGGPSSGAPPPS", "modifications": "D-Tyr1; Aib2; αMeL13; K17 conjugated to (2-[2-(2-Amino-ethoxy)-ethoxy]-acetyl)2-(γ-Glu)-CO-(CH2)18-CO2H; Aib20; αMeY25; C-terminal amide"}, "B6": {"name": "Example 365 (peptide)", "peptide": "B5 peptide with E21A, E28A", "modifications": "D-Tyr1; Aib2; αMeL13; K17 conjugated to (2-[2-(2-Amino-ethoxy)-ethoxy]-acetyl)2-(γ-Glu)-CO-(CH2)18-CO2H; Aib20; αMeY25; C-terminal amide"}, "B7": {"name": "Example 362 (peptide)", "peptide": "B1 peptide", "modifications": "D-Tyr1; Aib2; αMeL13; Orn16; K17 conjugated to (2-[2-(2-Amino-ethoxy)-ethoxy]-acetyl)2-(γ-Glu)-CO-(CH2)18-CO2H; Aib20; D-Glu24; C-terminal amide"}, "B8": {"name": "Example 369 (peptide)", "peptide": "B1 peptide with A21D, V23I, X24E", "modifications": "D-Tyr1; Aib2; αMeL13; Orn16; K17 conjugated to (2-[2-(2-Amino-ethoxy)-ethoxy]-acetyl)2-(γ-Glu)-CO-(CH2)18-CO2H; Aib20; C-terminal amide"}, "B9": {"name": "Example 375 (peptide)", "peptide": "B5 peptide with K16X, E28A", "modifications": "D-Tyr1; Aib2; αMeL13; Orn16; K17 conjugated to (2-[2-(2-Amino-ethoxy)-ethoxy]-acetyl)2-(γ-Glu)-CO-(CH2)16-CO2H; Aib20; αMeY25; C-terminal amide"}, "B10": {"name": "Example 378 (peptide)", "peptide": "B5 peptide with X25Y, E28A", "modifications": "D-Tyr1; Aib2; αMeL13; K17 conjugated to (2-[2-(2-Amino-ethoxy)-ethoxy]-acetyl)-(γ-Glu)-CO-(CH2)18-CO2H; Aib20; C-terminal amide"}, "B11": {"name": "Example 377 (peptide)", "peptide": "B5 peptide with K16X, E21A, E28A", "modifications": "D-Tyr1; Aib2; αMeL13; Orn16; K17 conjugated to (2-[2-(2-Amino-ethoxy)-ethoxy]-acetyl)2-(γ-Glu)-CO-(CH2)16-CO2H; Aib20; αMeY25; C-terminal amide"}, "B12": {"name": "Example 373 (peptide)", "peptide": "B5 peptide with E21A, E28A", "modifications": "D-Tyr1; Aib2; αMeL13; K17 conjugated to (2-[2-(2-Amino-ethoxy)-ethoxy]-acetyl)-(γ-Glu)-CO-(CH2)18-CO2H; Aib20; αMeY25; C-terminal amide"}, "B13": {"name": "Example 2 (peptide)", "peptide": "YXEGTXTSDYSIXLDXKAQXEFIXYLIEGGPSSGAPPPS", "modifications": "Aib2; αMeF(2F)6; αMeL13; Orn16; K17((2-[2-(2-Amino-ethoxy)-ethoxy]-acetyl)2-(γ-Glu)-CO-(CH2)16-CO2H); Aib20; D-Glu24; C-terminal amide"}, "B14": {"name": "Example 1 (peptide)", "peptide": "B13 peptide with X16E", "modifications": "Aib2; αMeF(2F)6; αMeL13; K17((2-[2-(2-Amino-ethoxy)-ethoxy]-acetyl)2-(γ-Glu)-CO-(CH2)18-CO2H); Aib20; D-Glu24; C-terminal amide"}, "B15": {"name": "Example 5 (peptide)", "peptide": "B13 peptide with Y10V, Y25X", "modifications": "Aib2; αMeF(2F)6; αMeL13; Orn16; K17((2-[2-(2-Amino-ethoxy)-ethoxy]-acetyl)2-(γ-Glu)-CO-(CH2)16-CO2H); Aib20; D-Glu24; αMeY25; C-terminal amide"}, "B16": {"name": "Example 4 (peptide)", "peptide": "B13 peptide with Y10X, Y25X", "modifications": "Aib2; αMeF(2F)6; 4Pal10; αMeL13; Orn16; K17((2-[2-(2-Amino-ethoxy)-ethoxy]-acetyl)2-(γ-Glu)-CO-(CH2)16-CO2H); Aib20; D-Glu24; αMeY25; C-terminal amide"}, "B17": {"name": "Example 3 (peptide)", "peptide": "B13 peptide", "modifications": "Aib2; αMeF(2F)6; αMeL13; Orn16; K17((2-[2-(2-Amino-ethoxy)-ethoxy]-acetyl)2-(γ-Glu)-CO-(CH2)18-CO2H); Aib20; D-Glu24; C-terminal amide"}},
  "note": "Numbering of substitutions follows the chain as printed. For hGIPR cAMP EC50 ratio in this document: reference of the scale not given here. For hGLP1R cAMP EC50 ratio in this document: reference of the scale not given here.",
  "data": [
    {"biological_target": "human GLP-1 receptor (GLP-1R) (human, UniProt P43220 24-463)", "assay": "cell-based or functional assay", "units": {"hGLP1R cAMP EC50 ratio": "ratio", "hGLP1R cAMP Rel EC50": "nM"}, "values": [
      {"binder": "B1", "hGLP1R cAMP EC50 ratio": 0.0303, "hGLP1R cAMP Rel EC50": 1},
      {"binder": "B2", "hGLP1R cAMP EC50 ratio": 0.159, "hGLP1R cAMP Rel EC50": 0.17},
      {"binder": "B3", "hGLP1R cAMP EC50 ratio": 0.0259, "hGLP1R cAMP Rel EC50": 0.955},
      {"binder": "B4", "hGLP1R cAMP EC50 ratio": 0.074, "hGLP1R cAMP Rel EC50": 0.366},
      {"binder": "B5", "hGLP1R cAMP EC50 ratio": 0.114, "hGLP1R cAMP Rel EC50": 0.238},
      {"binder": "B6", "hGLP1R cAMP EC50 ratio": 0.155, "hGLP1R cAMP Rel EC50": 0.175},
      {"binder": "B7", "hGLP1R cAMP EC50 ratio": 0.0805, "hGLP1R cAMP Rel EC50": 0.365},
      {"binder": "B8", "hGLP1R cAMP EC50 ratio": 0.319, "hGLP1R cAMP Rel EC50": 0.101},
      {"binder": "B9", "hGLP1R cAMP EC50 ratio": 0.178, "hGLP1R cAMP Rel EC50": 0.152},
      {"binder": "B10", "hGLP1R cAMP EC50 ratio": 0.142, "hGLP1R cAMP Rel EC50": 0.191},
      {"binder": "B11", "hGLP1R cAMP EC50 ratio": 0.199, "hGLP1R cAMP Rel EC50": 0.136},
      {"binder": "B12", "hGLP1R cAMP EC50 ratio": 0.0621, "hGLP1R cAMP Rel EC50": 0.436}
    ]},
    {"biological_target": "T1, human gastric inhibitory peptide receptor (GIPR) (human, UniProt P48546 22-466)", "T1 sequence (looked up)": "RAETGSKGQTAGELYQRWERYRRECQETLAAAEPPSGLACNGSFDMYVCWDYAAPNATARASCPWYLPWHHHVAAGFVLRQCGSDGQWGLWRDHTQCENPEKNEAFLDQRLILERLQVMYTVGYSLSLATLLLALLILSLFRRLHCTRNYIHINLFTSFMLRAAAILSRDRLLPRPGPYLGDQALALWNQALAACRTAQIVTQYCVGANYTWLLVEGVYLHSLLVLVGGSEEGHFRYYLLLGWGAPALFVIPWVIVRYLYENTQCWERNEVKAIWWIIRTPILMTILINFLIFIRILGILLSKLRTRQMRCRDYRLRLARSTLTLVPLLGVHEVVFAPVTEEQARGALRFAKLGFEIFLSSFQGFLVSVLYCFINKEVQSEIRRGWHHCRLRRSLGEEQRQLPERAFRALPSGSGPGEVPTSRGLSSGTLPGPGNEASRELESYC", "assay": "cell-based or functional assay", "units": {"hGIPR cAMP EC50 ratio": "ratio", "hGIPR cAMP Rel EC50": "nM"}, "values": [
      {"binder": "B1", "hGIPR cAMP EC50 ratio": 0.347, "hGIPR cAMP Rel EC50": 0.351},
      {"binder": "B2", "hGIPR cAMP EC50 ratio": 0.734, "hGIPR cAMP Rel EC50": 0.0723},
      {"binder": "B3", "hGIPR cAMP EC50 ratio": 0.261, "hGIPR cAMP Rel EC50": 0.401},
      {"binder": "B4", "hGIPR cAMP EC50 ratio": 0.598, "hGIPR cAMP Rel EC50": 0.0889},
      {"binder": "B5", "hGIPR cAMP EC50 ratio": 0.672, "hGIPR cAMP Rel EC50": 0.079},
      {"binder": "B6", "hGIPR cAMP EC50 ratio": 0.784, "hGIPR cAMP Rel EC50": 0.0678},
      {"binder": "B7", "hGIPR cAMP EC50 ratio": 0.347, "hGIPR cAMP Rel EC50": 0.302},
      {"binder": "B8", "hGIPR cAMP EC50 ratio": 0.499, "hGIPR cAMP Rel EC50": 0.166},
      {"binder": "B9", "hGIPR cAMP EC50 ratio": 1.13, "hGIPR cAMP Rel EC50": 0.0471},
      {"binder": "B10", "hGIPR cAMP EC50 ratio": 0.793, "hGIPR cAMP Rel EC50": 0.067},
      {"binder": "B11", "hGIPR cAMP EC50 ratio": 0.976, "hGIPR cAMP Rel EC50": 0.0544},
      {"binder": "B12", "hGIPR cAMP EC50 ratio": 0.287, "hGIPR cAMP Rel EC50": 0.185}
    ]},
    {"biological_target": "human glucagon receptor (human, UniProt P47871 26-477)", "sequence (P47871 26-477)": "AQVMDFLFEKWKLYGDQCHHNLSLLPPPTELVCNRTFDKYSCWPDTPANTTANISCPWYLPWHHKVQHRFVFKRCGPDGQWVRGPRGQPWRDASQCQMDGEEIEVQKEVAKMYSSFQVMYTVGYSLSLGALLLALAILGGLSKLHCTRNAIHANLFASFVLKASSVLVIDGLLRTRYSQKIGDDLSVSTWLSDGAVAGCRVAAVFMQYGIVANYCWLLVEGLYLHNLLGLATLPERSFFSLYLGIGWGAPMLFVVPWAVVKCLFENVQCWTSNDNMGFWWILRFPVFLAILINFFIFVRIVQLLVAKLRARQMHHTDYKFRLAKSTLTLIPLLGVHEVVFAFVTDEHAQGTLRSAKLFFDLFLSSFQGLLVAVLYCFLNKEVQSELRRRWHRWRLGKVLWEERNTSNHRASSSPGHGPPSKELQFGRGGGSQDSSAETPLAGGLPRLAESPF", "assay": "cell-based or functional assay", "units": {"cAMP EC50": "nM"}, "values": [
      {"binder": "B13", "cAMP EC50": "> 10900"},
      {"binder": "B14", "cAMP EC50": "> 11400"},
      {"binder": "B15", "cAMP EC50": "> 10900"},
      {"binder": "B16", "cAMP EC50": "> 10900"},
      {"binder": "B17", "cAMP EC50": "> 10900"}
    ]},
    {"biological_target": "human GLP-1 receptor (human, UniProt P43220 24-463)", "assay": "cell-based or functional assay", "units": {"cAMP EC50": "nM"}, "values": [
      {"binder": "B13", "cAMP EC50": 6.52},
      {"binder": "B14", "cAMP EC50": 53.3},
      {"binder": "B15", "cAMP EC50": 1.61},
      {"binder": "B16", "cAMP EC50": 2.02},
      {"binder": "B17", "cAMP EC50": 19.4}
    ]},
    {"biological_target": "T2, human GIP receptor (human, UniProt P48546 22-466)", "T2 sequence (looked up)": "T1 sequence (looked up)", "assay": "cell-based or functional assay", "units": {"cAMP EC50": "nM"}, "values": [
      {"binder": "B13", "cAMP EC50": 2.64},
      {"binder": "B14", "cAMP EC50": 38.5},
      {"binder": "B15", "cAMP EC50": 1.98},
      {"binder": "B16", "cAMP EC50": 1.03},
      {"binder": "B17", "cAMP EC50": 9.24}
    ]}
  ]
}
